Data as given in patent US20240010721A1.
Several values for one entry are separate records, joined by “and”; a condition that tells them apart may be missing. Identical values can stand only once.

Tests used:
[1] = biological target: human ROR1 (hROR1) on cells (human) (UniProt Q01973); test: cell-based or functional assay
[2] = biological target: human ROR1 (hROR1) on cells (human) (UniProt Q01973); test: FACS, A549 cells; isotype control
[3] = biological target: human ROR1 (hROR1) on cells (human) (UniProt Q01973); test: FACS, HEK293T-hROR1 cells; isotype control
[4] = biological target: cynomolgus ROR1 (cynoROR1) on CHO-K1 cells (cynomolgus); test: FACS, CHO-K1-cynoROR1 cells; isotype control
[5] = biological target: Human ROR1-ECD-his (human) (UniProt Q01973); test: ELISA, plate coated with hROR1 ECD-his; isotype control
hROR2ECD-his (human) = hROR2ECD-his (human) (UniProt Q01974); test: ELISA, plate coated with hROR2 ECD-his; isotype control
hROR2ECD-his (human), sequence (Q01974 34-403): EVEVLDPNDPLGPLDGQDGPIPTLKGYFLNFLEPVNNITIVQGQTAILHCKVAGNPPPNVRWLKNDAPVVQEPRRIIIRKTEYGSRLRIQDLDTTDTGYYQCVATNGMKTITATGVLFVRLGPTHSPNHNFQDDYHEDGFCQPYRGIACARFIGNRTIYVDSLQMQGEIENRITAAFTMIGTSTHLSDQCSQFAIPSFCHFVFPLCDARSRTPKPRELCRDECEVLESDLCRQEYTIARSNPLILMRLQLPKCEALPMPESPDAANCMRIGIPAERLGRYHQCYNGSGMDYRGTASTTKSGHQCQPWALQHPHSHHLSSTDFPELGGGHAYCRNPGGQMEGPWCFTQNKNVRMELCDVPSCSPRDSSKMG

human ROR1 (hROR1) on cells (human), sequence (Q01973 30-937): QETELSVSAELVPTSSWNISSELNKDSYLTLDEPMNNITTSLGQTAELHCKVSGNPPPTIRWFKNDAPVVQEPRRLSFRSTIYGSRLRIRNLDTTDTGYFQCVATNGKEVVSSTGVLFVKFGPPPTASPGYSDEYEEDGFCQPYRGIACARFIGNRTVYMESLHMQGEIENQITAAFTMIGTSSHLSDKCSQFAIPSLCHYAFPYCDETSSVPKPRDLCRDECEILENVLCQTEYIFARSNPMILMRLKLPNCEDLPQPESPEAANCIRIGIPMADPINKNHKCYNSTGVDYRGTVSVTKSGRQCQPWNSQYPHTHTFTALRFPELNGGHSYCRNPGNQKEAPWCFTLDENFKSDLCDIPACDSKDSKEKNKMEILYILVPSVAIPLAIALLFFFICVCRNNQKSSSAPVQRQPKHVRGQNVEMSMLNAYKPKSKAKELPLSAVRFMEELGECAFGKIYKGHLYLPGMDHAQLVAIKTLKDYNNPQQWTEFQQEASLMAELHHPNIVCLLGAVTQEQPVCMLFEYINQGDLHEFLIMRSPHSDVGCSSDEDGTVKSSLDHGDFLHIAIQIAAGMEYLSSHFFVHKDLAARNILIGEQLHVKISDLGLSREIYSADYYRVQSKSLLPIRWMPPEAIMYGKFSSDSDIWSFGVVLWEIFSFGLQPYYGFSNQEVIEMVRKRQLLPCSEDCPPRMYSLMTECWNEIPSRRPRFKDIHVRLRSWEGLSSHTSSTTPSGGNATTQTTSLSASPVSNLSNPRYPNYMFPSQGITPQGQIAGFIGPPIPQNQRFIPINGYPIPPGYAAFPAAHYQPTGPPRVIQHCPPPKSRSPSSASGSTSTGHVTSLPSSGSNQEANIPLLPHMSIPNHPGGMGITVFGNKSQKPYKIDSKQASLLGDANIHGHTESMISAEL
Human ROR1-ECD-his (human), sequence (Q01973 30-406): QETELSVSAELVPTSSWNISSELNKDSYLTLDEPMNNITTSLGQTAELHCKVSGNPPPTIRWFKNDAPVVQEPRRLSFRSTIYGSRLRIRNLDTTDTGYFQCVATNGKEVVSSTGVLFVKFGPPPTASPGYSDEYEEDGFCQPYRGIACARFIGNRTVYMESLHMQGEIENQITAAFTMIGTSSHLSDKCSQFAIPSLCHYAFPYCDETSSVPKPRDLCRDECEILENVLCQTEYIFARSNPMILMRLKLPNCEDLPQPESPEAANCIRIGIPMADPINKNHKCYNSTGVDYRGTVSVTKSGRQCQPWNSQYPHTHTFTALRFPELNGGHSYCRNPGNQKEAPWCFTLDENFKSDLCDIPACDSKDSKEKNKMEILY

ADCP, percentage of double-stained cells, 0.1 nM (control) [1]: 6.79% and 5.59%
ADCP, percentage of double-stained cells, 10 nM (control) [1]: 6.53% and 7.46%
MAX(MFI) [2]: 119 MFI
MAX(MFI) [3]: 226 MFI
MAX(MFI) [4]: 140 MFI
ELISA signal (called MFI) [5]: 0.036
ELISA signal (called MFI) (hROR2ECD-his (human)): 0.041
Substance: human Iso IgG1 (CrownBio, Cat#: C0001-4) (antibody)
ADCC Cytotoxicity (%), Donor 1, 1 nM (negative control) [1]: 9.89%
ADCC Cytotoxicity (%), Donor 1, 10 nM (negative control) [1]: 10.4%
ADCC Cytotoxicity (%), Donor 2, 1 nM (negative control) [1]: 10.8%
ADCC Cytotoxicity (%), Donor 2, 10 nM (negative control) [1]: 10.5%
